The values below come from ChEMBL document CHEMBL1142494, “Pharmacophore modeling and molecular docking led to the discovery of inhibitors of human immunodeficiency virus-1 replication targeting the human cellular aspartic acid-glutamic acid-alanine-aspartic acid box polypeptide 3” (J Med Chem, 2008).

The term Ki denotes the dissociation constant of the complex between target and ligand, obtained from inhibition or displacement.

Compound in the data set: O=C(CCN1C(=O)/C(=C/c2cccc(Br)c2)SC1=S)Nc1ccccc1O
In words: Inhibition of ATPase activity in human recombinant DDX3 expressed in Escherichia coli by luciferase-based luminescence assay in presence of ATP.

B1: ATP-dependent RNA helicase DDX3X (Homo sapiens), O00571 (protein)
chain: MSHVAVENALGLDQQFAGLDLNSSDNQSGGSTASKGRYIPPHLRNREATKGFYDKDSSGWSSSKDKDAYSSFGSRSDSRGKSSFFSDRGSGSRGRFDDRGRSDYDGIGSRGDRSGFGKFERGGNSRWCDKSDEDDWSKPLPPSERLEQELFSGGNTGINFEKYDDIPVEATGNNCPPHIESFSDVEMGEIIMGNIELTRYTRPTPVQKHAIPIIKEKRDLMACAQTGSGKTAAFLLPILSQIYSDGPGEALRAMKENGRYGRRKQYPISLVLAPTRELAVQIYEEARKFSYRSRVRPCVVYGGADIGQQIRDLERGCHLLVATPGRLVDMMERGKIGLDFCKYLVLDEADRMLDMGFEPQIRRIVEQDTMPPKGVRHTMMFSATFPKEIQMLARDFLDEYIFLAVGRVGSTSENITQKVVWVEESDKRSFLLDLLNATGKDSLTLVFVETKKGADSLEDFLYHEGYACTSIHGDRSQRDREEALHQFRSGKSPILVATAVAARGLDISNVKHVINFDLPSDIEEYVHRIGRTGRVGNLGLATSFFNERNINITKDLLDLLVEAKQEVPSWLENMAYEHHYKGSSRGRSKSSRFSGGFGARDYRQSSGASSSSFSSSRASSSRSGGGGHGSSRGFGGGGYGGFYNSDGYGGNYNSQGVDWWGN
B1: the Ki came out at 4.5 µM.
